From patent US20200283537A1 (UNIVERSITY OF VIRGINIA PATENT FOUNDATION, published 2020)

B1: BaCa-1 (Bispecific-Anchored Cytotoxicity-Activator-1; farletuzumab IgG1 with a lexatumumab scFv at the C-terminus of the heavy chain) (bispecific antibody)
heavy: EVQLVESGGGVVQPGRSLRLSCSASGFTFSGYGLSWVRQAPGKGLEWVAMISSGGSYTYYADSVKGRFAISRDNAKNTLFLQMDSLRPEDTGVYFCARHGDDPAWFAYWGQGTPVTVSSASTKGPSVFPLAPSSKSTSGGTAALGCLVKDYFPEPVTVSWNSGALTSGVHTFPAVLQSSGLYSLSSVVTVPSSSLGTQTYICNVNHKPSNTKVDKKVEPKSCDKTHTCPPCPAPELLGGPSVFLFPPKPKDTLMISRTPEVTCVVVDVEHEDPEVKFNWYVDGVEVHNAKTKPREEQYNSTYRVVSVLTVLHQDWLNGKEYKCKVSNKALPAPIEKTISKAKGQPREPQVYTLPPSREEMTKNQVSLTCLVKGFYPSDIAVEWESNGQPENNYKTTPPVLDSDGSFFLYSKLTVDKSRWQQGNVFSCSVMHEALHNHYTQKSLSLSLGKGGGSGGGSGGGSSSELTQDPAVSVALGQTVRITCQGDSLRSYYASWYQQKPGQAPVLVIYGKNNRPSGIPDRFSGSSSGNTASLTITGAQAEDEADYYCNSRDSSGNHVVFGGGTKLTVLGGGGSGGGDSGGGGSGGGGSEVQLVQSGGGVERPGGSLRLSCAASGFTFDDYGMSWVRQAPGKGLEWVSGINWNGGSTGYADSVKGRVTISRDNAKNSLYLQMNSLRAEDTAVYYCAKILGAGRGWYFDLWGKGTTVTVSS
light: DIQLTQSPSSLSASVGDRVTITCSVSSSISSNNLHWYQQKPGKAPKPWIYGTSNLASGVPSRFSGSGSGTDYTFTISSLQPEDIATYYCQQWSSYPYMYTFGQGTKVEIKRTVAAPSVFIFPPSDEQLKSGTASVVCLLNNFYPREAKVQWKVDNALQSGNSQESVTEQDSKDSTYSLSSTLTLSKADYEKHKVYACEVTHQGLSSPVTKSFNRGEC
B2: BaCa antibody labelled with IRDye 800CW (bispecific antibody, human IgG1, kappa)
heavy: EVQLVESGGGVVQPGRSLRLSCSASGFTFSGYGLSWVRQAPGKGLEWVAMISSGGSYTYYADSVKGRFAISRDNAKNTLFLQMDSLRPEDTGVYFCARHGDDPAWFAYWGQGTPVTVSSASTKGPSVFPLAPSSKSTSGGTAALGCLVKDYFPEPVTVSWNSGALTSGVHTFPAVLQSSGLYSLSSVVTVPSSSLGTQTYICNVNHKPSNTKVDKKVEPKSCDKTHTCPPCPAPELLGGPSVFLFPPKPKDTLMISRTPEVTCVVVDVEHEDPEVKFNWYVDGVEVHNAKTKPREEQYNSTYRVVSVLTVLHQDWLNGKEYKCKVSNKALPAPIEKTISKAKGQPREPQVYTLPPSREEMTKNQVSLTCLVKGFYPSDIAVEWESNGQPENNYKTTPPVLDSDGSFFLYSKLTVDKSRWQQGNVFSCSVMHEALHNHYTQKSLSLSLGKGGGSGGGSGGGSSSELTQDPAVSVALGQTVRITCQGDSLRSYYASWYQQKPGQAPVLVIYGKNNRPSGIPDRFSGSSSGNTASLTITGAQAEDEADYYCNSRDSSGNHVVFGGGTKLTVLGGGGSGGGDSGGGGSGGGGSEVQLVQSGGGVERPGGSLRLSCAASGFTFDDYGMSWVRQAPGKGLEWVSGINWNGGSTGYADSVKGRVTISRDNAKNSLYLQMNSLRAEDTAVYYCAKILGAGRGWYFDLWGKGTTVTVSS
light: B1 light
modifications: IRDye 800CW NHS Ester label; sites not stated; IRDye 800CW NHS Ester label (0.04 mg dye per 1 mg of antibodies); sites not stated
notes: Lead BaCa (BaCa-1/HuBaCa), dye-conjugated; also called BaCa-IR800; IR800 labeled BaCa

How the values were obtained:
[1] = biological target: Human folate receptor alpha-1 (FOLR1) on ovarian cancer cells (human, UniProt P15328 25-234); experiment: cell-based or functional assay
Sequence of Human folate receptor alpha-1 (FOLR1) on ovarian cancer cells (P15328 25-234): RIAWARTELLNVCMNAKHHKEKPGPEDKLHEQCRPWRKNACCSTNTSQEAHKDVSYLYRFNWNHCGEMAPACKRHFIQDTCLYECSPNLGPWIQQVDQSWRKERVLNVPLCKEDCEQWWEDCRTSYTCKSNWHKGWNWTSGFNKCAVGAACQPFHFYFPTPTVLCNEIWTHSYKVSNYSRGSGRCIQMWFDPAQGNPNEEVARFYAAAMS

[2] = biological target: Human death receptor 5 (DR5/TRAIL-R2) on cancer cells (human, UniProt O14763 56-440); experiment: cell-based or functional assay
[3] = biological target: T1, Recombinant DR5 (rDR5), extracellular domain of DR5/TRAIL-R2 fused to IgG4-Fc; experiment: ELISA on coated rDR5-IgG4-Fc (FIG. 12D)
T1 construct: It was biotinylated for BLI; also called rDR5-IgG4; DR5-Fc
Method: (D) IgG4-Fc tagged rDR5 receptor was coated in 96 well plates overnight.
Binding specificity and affinity of various described IgG1 subclasses were determined by ELISA using the recombinant extracellular domain of FOLR1 and/or DR5/TRAIL-R2. For coating 96-well ELISA plates (Olympus), the protein solutions (2 μg/ml) were prepared in coating buffer (100 mM Sodium Bicarbonate pH 9.2) and 100 μl was distributed in each well. The plates were then incubated overnight at 4° C. Next day, the unbound areas were blocked by cell culture media containing 10% FBS, 1% BSA and 0.5% sodium azide for 2 hr at room temperature. […] After washing with PBS solution containing 0.1% Tween20, the plates were incubated for 1 hr with horseradish peroxidase (HRP) conjugated anti-human IgG1 (Thermo Scientific, A10648). Detection was performed using a two-component peroxidase substrate kit (BD biosciences) and the reaction was stopped with the addition of 2 N Sulfuric acid. Absorbance at 450 nm was immediately recorded using a Synergy Spectrophotometer (BioTech), and background absorbance from negative control samples was subtracted. The antibody affinities (Kd) were calculated by non-linear regression analysis using GraphPad Prism software.

| Binder | cell killing, OVCAR-4 (high FOLR1) over Colo-205 (low FOLR1) cells [1] | IC50 of cell viability, Colo-205 cells [2] | binding result [3] |
| --- | --- | --- | --- |
| B1 | ~70 fold | 3.07 nM |  |
| B2 |  |  | binds |
